Assay results taken from article PMC2859563.

T1: SmcR (Vibrio vulnificus, UniProt Q9L8G8 1-205)
T1 sequence: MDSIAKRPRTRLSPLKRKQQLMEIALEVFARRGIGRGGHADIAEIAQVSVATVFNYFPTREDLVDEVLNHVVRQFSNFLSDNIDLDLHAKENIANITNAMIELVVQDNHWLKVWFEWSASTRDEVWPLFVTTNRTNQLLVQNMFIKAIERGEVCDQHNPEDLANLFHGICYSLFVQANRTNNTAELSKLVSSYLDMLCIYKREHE


Biological target: T1, SmcR
Assay: ITC

Binder | Kd [µM]
PvvpE (dsDNA) DNA 1: ATCTTATTGATAAATCTGCGTAAAAAA DNA 2: TTTTTTACGCAGATTTATCAATAAGAT | 2.8
PvvpE-mod (dsDNA) DNA 1: TTCTTATTGATAAATTTGTGAATAAAA DNA 2: TTTTATTCACAAATTTATCAATAAGAA | 0.076
